Experimental findings from publication PMC6277223 (Neoplasia (New York, N.Y.), 2018) are described below.

This assay addresses His-SIRT6 (UniProt Q8N6T7 1-355). Kind of assay: pull-down.

His-SIRT6, sequence (Q8N6T7 whole entry): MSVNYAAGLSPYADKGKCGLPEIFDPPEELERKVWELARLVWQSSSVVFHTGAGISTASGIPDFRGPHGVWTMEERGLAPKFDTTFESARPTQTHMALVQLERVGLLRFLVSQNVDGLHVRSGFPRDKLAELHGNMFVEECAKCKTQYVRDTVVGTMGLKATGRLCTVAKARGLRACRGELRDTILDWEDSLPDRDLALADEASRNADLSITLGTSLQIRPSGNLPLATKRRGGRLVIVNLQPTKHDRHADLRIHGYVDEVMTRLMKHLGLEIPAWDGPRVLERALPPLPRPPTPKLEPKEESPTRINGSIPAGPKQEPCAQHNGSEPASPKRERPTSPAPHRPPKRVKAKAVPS

B1: GST-PKCζ N-terminus (1-251 aa) (domain or fragment, UniProt Q05513 1-251, looked up)
chain: MPSRTGPKMEGSGGRVRLKAHYGGDIFITSVDAATTFEELCEEVRDMCRLHQQHPLTLKWVDSEGDPCTVSSQMELEEAFRLARQCRDEGLIIHVFPSTPEQPGLPCPGEDKSIYRRGARRWRKLYRANGHLFQAKRFNRRAYCGQCSERIWGLARQGYRCINCKLLVHKRCHGLVPLTCRKHMDSVMPSQEPPVDDKNEDADLPSEETDGIAYISSSRKHDSIKDDSEDLKPVIDGMDGIKISQGLGLQD
In the case of B1, the binding result is given as “binds”.
